According to the supplement of paper PMC7877785:
± gives the uncertainty stated by the source.

Experiment: self-splicing fitness, log relative to wild type (ln ratio); higher = more splicing; Tetrahymena group I intron in knt gene, E. coli kanamycin selection, DiMSum; sequences stand for … in CUCUCU…GGAGGGAAAAGUUAUCAGGCAUGCACCUGGUAGCUAGUCUUUAAACCAAUAGAUUGCAUCGGUUUAAAAGGCAAGACCGUCAAAUUGCGGGAAAGGGGUCAACAGCCGUUCAGUACCAAGUCUCAGGGGAAACUUUGAGAUGGCCUUGCAAAGGGUAUGGUAAUAAGCUGACGGACAUGGUCCUAACCACGCAGCCAAGUCCUAAGUCAACAGAUCUUCUGUUGAUAUGGAUGCAGUUCACAGACUAAAUGUCGGUCGGGGAAGAUGUAUUCUUCUCAUAAGAUAUAGUCGGACCUCUCCUUAAUGGGAGCUAGCGGAUGAAGUGAUGCAACACUGGAGCCGCUGGGAACUAAUUUGUAUGCGAAAGUAUAUUGAUUAGUUUUGGAGUACUCGUGGUCG
Outline: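 Six replicate transformations of E. coli BL21(DE3) with a pET-22b(+) library were grown overnight at 37°C or 30°C. The library randomised all eight P1ex-region intron nucleotides, the intron lying in the knt kanamycin-resistance gene, and plates were LB agar with or without 25 μg/mL kanamycin plus 100 μg/mL carbenicillin, 50 μM IPTG and 0.2% rhamnose. Pooled colonies were amplicon-sequenced on an Illumina HiSeq 2500, and fitness is the DiMSum error-weighted combination of wild-type-normalised replicate fold changes, kanamycin versus none.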

Sequence | self-splicing fitness (ln) (30 °C) | self-splicing fitness (ln) (37 °C)
GUUUAGCAAUAUUACGCGGU | -2.3 ± 0.45 | -1.95 ± 0.36
AGGGAGCAAUAUUACGACCA | -1.14 ± 0.18 | -0.171 ± 0.19
CGGAAGCAAUAUUACGCACG | – | 0.981 ± 0.23
CGUCAGCAAUAUUACGCCAU | -3.87 ± 0.29 | -2.81 ± 0.3
GAGUAGCAAUAUUACGGACG | -3.14 ± 0.28 | -0.531 ± 0.2
GGUAAGCAAUAUUACGGUAA | -1.6 ± 0.17 | -0.53 ± 0.14
UCUUAGCAAUAUUACGUGCG | -2.14 ± 0.15 | -1.67 ± 0.2
ACAUAGCAAUAUUACGGGGC | -2.87 ± 0.12 | -1.81 ± 0.13
GCAGAGCAAUAUUACGUUAG | -3.42 ± 0.26 | -1.61 ± 0.17
CAUCAGCAAUAUUACGGGAA | -2.53 ± 0.21 | -1.68 ± 0.17
CCAUAGCAAUAUUACGAUGU | -3.94 ± 0.22 | -2.71 ± 0.2
GGGCAGCAAUAUUACGGCAA | -0.705 ± 0.14 | -0.742 ± 0.17
CUUCAGCAAUAUUACGAUCU | -2.86 ± 0.39 | -2.88 ± 0.35
UCACAGCAAUAUUACGGGGU | -3.58 ± 0.14 | -2.67 ± 0.18
UGUAAGCAAUAUUACGGAAU | – | -2.49 ± 0.26
AGAUAGCAAUAUUACGGACU | 0.201 ± 0.1 | -0.666 ± 0.093
CUACAGCAAUAUUACGUUGG | -3.51 ± 0.15 | -2.45 ± 0.14
UCCUAGCAAUAUUACGCAUA | -2.82 ± 0.3 | -2.11 ± 0.2
UUCGAGCAAUAUUACGGCAA | -0.587 ± 0.099 | -0.26 ± 0.12
CCAUAGCAAUAUUACGAUGG | -3.35 ± 0.17 | -2.38 ± 0.18

Sequence | self-splicing fitness (ln) (30 °C) | self-splicing fitness (ln) (37 °C)
ACCAAGCAAUAUUACGGGGU | -3.66 ± 0.14 | -3.5 ± 0.19
GCACAGCAAUAUUACGGUUC | -0.415 ± 0.055 | -0.0499 ± 0.073
CAGCAGCAAUAUUACGGCCC | -0.505 ± 0.15 | -0.0529 ± 0.23
CGCCAGCAAUAUUACGGAGA | – | -2.4 ± 0.24
AUAUAGCAAUAUUACGCCUG | -2.24 ± 0.23 | -1.6 ± 0.24
UCAAAGCAAUAUUACGCAUG | -1.44 ± 0.12 | -1.27 ± 0.14
GAACAGCAAUAUUACGCCUA | -1.42 ± 0.086 | -0.336 ± 0.087
GUUUAGCAAUAUUACGUCGG | -2.06 ± 0.18 | -2.12 ± 0.21
GAUGAGCAAUAUUACGAUGG | -1.57 ± 0.13 | -2 ± 0.25
GAGCAGCAAUAUUACGCGAG | -2.38 ± 0.14 | -0.876 ± 0.12
UAGCAGCAAUAUUACGAGGC | – | -3.43 ± 0.31
ACAUAGCAAUAUUACGGAGC | – | -0.767 ± 0.15
GACGAGCAAUAUUACGUGCG | -2.7 ± 0.17 | -0.259 ± 0.11
UUCGAGCAAUAUUACGCGCA | -0.15 ± 0.13 | -0.296 ± 0.17
UGUCAGCAAUAUUACGCCCU | -0.458 ± 0.13 | -0.00845 ± 0.19
UUGUAGCAAUAUUACGUUUA | -1.36 ± 0.16 | -1.15 ± 0.17
CAAAAGCAAUAUUACGCUAG | -3.12 ± 0.12 | -2.26 ± 0.14
UUUUAGCAAUAUUACGAGGU | -2.89 ± 0.43 | –
CAGGAGCAAUAUUACGGACG | -0.757 ± 0.1 | -0.376 ± 0.11
CUGAAGCAAUAUUACGUUUC | -2.72 ± 0.41 | –
